T1: periplasmic domain of the EAEC TssM protein (enteroaggregative Escherichia coli …)
T1 construct: TssM of enteroaggregative Escherichia coli (EAEC), a 1129-amino-acid inner membrane protein; periplasmic domain, amino-acids 386-1129; also called TssM periplasmic domain; source: recombinant, produced and purified as described previously [11]
T1 chain: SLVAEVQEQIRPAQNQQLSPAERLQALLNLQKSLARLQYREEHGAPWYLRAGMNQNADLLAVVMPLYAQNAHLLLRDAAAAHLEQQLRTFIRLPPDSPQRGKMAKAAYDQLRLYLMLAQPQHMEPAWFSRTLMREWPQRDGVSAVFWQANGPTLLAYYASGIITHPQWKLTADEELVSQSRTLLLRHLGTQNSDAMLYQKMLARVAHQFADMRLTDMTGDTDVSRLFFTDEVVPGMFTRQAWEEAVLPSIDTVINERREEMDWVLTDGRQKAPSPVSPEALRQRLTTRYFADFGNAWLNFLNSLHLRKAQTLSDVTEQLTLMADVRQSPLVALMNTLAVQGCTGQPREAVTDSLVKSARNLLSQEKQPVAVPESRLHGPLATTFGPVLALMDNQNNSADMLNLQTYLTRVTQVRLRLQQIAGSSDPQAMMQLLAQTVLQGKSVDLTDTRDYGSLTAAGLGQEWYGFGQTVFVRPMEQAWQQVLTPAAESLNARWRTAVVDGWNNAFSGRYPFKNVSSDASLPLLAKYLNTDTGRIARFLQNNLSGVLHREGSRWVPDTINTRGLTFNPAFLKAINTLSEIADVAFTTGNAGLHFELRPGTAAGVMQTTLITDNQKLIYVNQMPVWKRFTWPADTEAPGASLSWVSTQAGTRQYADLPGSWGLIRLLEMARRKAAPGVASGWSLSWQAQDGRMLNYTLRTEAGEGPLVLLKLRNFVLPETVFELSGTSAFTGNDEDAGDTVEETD

B1: anti-TssM nanobody nb25 (VHH)
VHH: QVQLVESGGGLVQAGGSLRLSCAASGFTFEDYAIGWFRQAPGKEREGVSCISNLDGSTYYPDSVKGRFTASSDKAKNMVYLQMNSLKPEDTAVYYCAAVNAQGIYCTDYIIGPYGMDYWGKGTQVTVSS
notes: llama VHH raised against TssMp; CDR3 of 19 residues, disulfide bridge between Cys-106 and CDR2 Cys-50; source: E. coli WK6 periplasm (pHEN6, pelB signal peptide), purified (Ni-NTA, Superdex 75)
B2: anti-TssM nanobody nb42 (VHH)
VHH: DVQLVESGGGLVQAGGSLRLSCAASGFTFGDYAIGWFRQAPGKEREGVSCFSNSDGSTYYADSVKGRFTSSSDNAKNTQYLQMNSLKPEDTAIYYCAAVKAQGIYCTEYIIGPYGMDYWGKGTLVTVSS
notes: very similar to nb25, CDR3 identical to that of nb25; No structure was solved for nb42; also called nb25 variant nb42; source: E. coli WK6 periplasm (pHEN6, pelB signal peptide), purified (Ni-NTA, Superdex 75)
B3: anti-TssM nanobody nb02 (VHH)
VHH: DVQLVESGGGLVHPGGSLRLSCAASGRTFSDYALGWFRQAPGKDREFVAAISWSGGSTYYADSVQGRFTISRDNDKNSVYLQMNSLKPEDTAVYYCAADKYYTGPGGESVYDYWGRGTQVTVSS
notes: llama VHH raised against TssMp; CDR3 of 14 residues; source: E. coli WK6 periplasm (pHEN6, pelB signal peptide), purified (Ni-NTA, Superdex 75)

Target: T1, periplasmic domain of the EAEC TssM …
Assay: SPR; nanobodies covalently linked to a CM5 chip, TssMp injected (1.95 to 250 nM); Biacore X100; multi-cycle kinetics; regeneration with glycine-HCl pH 2.5; apparent KDs
Settings: both partners purified

Binder	Kd [nM]	koff [s⁻¹]	kon [M⁻¹ s⁻¹]
B1	1.61 ± 0.05	0.00056	350000
B2	1.76 ± 0.08	0.00036	204000
B3	66.8 ± 2.5	0.0402	602000
